What was measured:
FcγRIIa H = FcγRIIa H (human, UniProt P12318 34-217); assay: SPR Biacore, captured antibody, FcγR analyte; vs GpH7-A5/GpH7-B3/GpL16-k0 = 100
FcγRIa = biological target: T1, FcγRIa (human, UniProt P12314 16-292); assay: SPR (Biacore), captured antibody, FcγR as analyte, relative binding
T1 construct: extracellular domain; Soluble extracellular domain with C-terminal His tag, used as analyte; also called FcgRI; CD64; not shown: His tag at the C terminus
Experimental: (§1) The heterodimerized antibodies He Abs in which one of the H chains was introduced with an alteration were assayed for their binding activities to each activating FcγR and inhibitory FcγR according to the method described in Example 4. […] The activating FcγRs in FIGS. 26, 27, 28, and 29 are FcγRIa, FcγRIIa (R), FcγRIIa (H), and FcγRIIIa, respectively.
(§2) Analysis of interaction between objective antibody and the FcγR was carried out using Biacore T100 (GE Healthcare). HBS-EP+ (GE Healthcare) was used as the running buffer, and the measurement temperature was set to 25° C. Chips produced by immobilizing the antigen peptide by the amine coupling method to a Series S Sencor Chip CM5 (GE Healthcare), or alternatively, chips produced by allowing preliminarily biotinylated antigen peptides to interact with and immobilize onto a Series S Sensor Chip SA (certified) (GE Healthcare) were used. Antibodies of interest were captured onto an antigen peptide-immobilized chip, and allowed to interact to each FcγR diluted with running buffer. To regenerate and repeatedly use the chip, the antibodies captured on the chip were washed off by reacting 10 mM glycine-HCl, pH 1.5.

FcγRIIb = biological target: T2, FcγRIIb (human, UniProt P31994 43-217); assay: as above
T2 construct: extracellular domain; Soluble extracellular domain with C-terminal His tag, used as analyte; also called FcgRIIb; CD32B; not shown: His tag at the C terminus
T2 sequence (looked up): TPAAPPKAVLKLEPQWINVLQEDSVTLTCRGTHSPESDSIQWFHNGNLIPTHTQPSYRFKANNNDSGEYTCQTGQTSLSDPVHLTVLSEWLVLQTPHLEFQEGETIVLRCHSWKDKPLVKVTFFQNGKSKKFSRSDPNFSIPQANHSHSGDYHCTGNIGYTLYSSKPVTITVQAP
Experimental: as §1, §2

Chain of FcγRIIa H (P12318 34-217): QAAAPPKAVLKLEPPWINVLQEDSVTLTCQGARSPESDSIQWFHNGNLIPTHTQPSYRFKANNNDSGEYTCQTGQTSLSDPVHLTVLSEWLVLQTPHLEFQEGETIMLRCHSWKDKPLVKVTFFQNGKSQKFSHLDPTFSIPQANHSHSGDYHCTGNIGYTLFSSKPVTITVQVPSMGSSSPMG
T1 sequence (P12314 16-292): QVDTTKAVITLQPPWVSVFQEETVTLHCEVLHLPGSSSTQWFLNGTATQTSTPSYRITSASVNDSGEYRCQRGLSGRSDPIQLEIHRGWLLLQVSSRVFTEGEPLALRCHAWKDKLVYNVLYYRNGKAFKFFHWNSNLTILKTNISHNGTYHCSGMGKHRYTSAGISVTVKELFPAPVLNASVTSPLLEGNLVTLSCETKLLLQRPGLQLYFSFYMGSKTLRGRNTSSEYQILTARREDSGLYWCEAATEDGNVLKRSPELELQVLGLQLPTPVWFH

Row | Binder | He/Con_2aH (FcγRIIa H) | He/Con_1a (FcγRIa) | He/Con_2b (FcγRIIb)
1 | GpH7-A5/GpH7-B3 variant L328_14T/GpL16-k0 (antibody, human IgG1, kappa, also called He Ab L328_14T) heavy 1: not shown heavy 2: not shown light: DIVMTQSPLSLPVTPGEPASISCQASESLVHSNRNTYLHWYLQKPGQSPQLLIYKVSNRFSGVPDRFSGSGSGTDFTLKISRVEAEDVGVYYCSQNTHVPPTFGQGTKVEIERTVAAPSVFIFPPSDEQLKSGTASVVCLLNNFYPREAKVQWKVDNALQSGNSQESVTEQDSKDSTYSLSSTLTLSKADYEKHKVYACEVTHQGLSSPVTKSFNRGEC | 116 % of control |  | 
2 | GpH7-A5/GpH7-B3 variant S337_09D/GpL16-k0 (antibody, human IgG1, kappa, also called He Ab S337_09D) heavy 1: not shown heavy 2: not shown light: DIVMTQSPLSLPVTPGEPASISCQASESLVHSNRNTYLHWYLQKPGQSPQLLIYKVSNRFSGVPDRFSGSGSGTDFTLKISRVEAEDVGVYYCSQNTHVPPTFGQGTKVEIERTVAAPSVFIFPPSDEQLKSGTASVVCLLNNFYPREAKVQWKVDNALQSGNSQESVTEQDSKDSTYSLSSTLTLSKADYEKHKVYACEVTHQGLSSPVTKSFNRGEC | 107 % of control |  | 
3 | GpH7-A5/GpH7-B3 variant T335_15Y/GpL16-k0 (antibody, human IgG1, kappa, also called He Ab T335_15Y) heavy 1: not shown heavy 2: not shown light: DIVMTQSPLSLPVTPGEPASISCQASESLVHSNRNTYLHWYLQKPGQSPQLLIYKVSNRFSGVPDRFSGSGSGTDFTLKISRVEAEDVGVYYCSQNTHVPPTFGQGTKVEIERTVAAPSVFIFPPSDEQLKSGTASVVCLLNNFYPREAKVQWKVDNALQSGNSQESVTEQDSKDSTYSLSSTLTLSKADYEKHKVYACEVTHQGLSSPVTKSFNRGEC | 106 % of control |  | 
4 | GpH7-A5/GpH7-B3 variant T335_19Q/GpL16-k0 (antibody, human IgG1, kappa, also called He Ab T335_19Q) heavy 1: not shown heavy 2: not shown light: DIVMTQSPLSLPVTPGEPASISCQASESLVHSNRNTYLHWYLQKPGQSPQLLIYKVSNRFSGVPDRFSGSGSGTDFTLKISRVEAEDVGVYYCSQNTHVPPTFGQGTKVEIERTVAAPSVFIFPPSDEQLKSGTASVVCLLNNFYPREAKVQWKVDNALQSGNSQESVTEQDSKDSTYSLSSTLTLSKADYEKHKVYACEVTHQGLSSPVTKSFNRGEC | 103 % of control |  | 
5 | GpH7-A5/GpH7-B3 variant S324_02A/GpL16-k0 (antibody, human IgG1, kappa, also called He Ab S324_02A) heavy 1: not shown heavy 2: not shown light: DIVMTQSPLSLPVTPGEPASISCQASESLVHSNRNTYLHWYLQKPGQSPQLLIYKVSNRFSGVPDRFSGSGSGTDFTLKISRVEAEDVGVYYCSQNTHVPPTFGQGTKVEIERTVAAPSVFIFPPSDEQLKSGTASVVCLLNNFYPREAKVQWKVDNALQSGNSQESVTEQDSKDSTYSLSSTLTLSKADYEKHKVYACEVTHQGLSSPVTKSFNRGEC | 102 % of control |  | 
6 | GpH7-A5/GpH7-B3 variant Y300_01G/GpL16-k0 (antibody, human IgG1, kappa, He Ab: mutation in one H chain only; also called He Ab) heavy 1: not shown heavy 2: not shown light: DIVMTQSPLSLPVTPGEPASISCQASESLVHSNRNTYLHWYLQKPGQSPQLLIYKVSNRFSGVPDRFSGSGSGTDFTLKISRVEAEDVGVYYCSQNTHVPPTFGQGTKVEIERTVAAPSVFIFPPSDEQLKSGTASVVCLLNNFYPREAKVQWKVDNALQSGNSQESVTEQDSKDSTYSLSSTLTLSKADYEKHKVYACEVTHQGLSSPVTKSFNRGEC |  | 116 % of GpH7-A5/GpH7-B3/GpL16-k0 | 48.4 % of GpH7-A5/GpH7-B3/GpL16-k0
7 | GpH7-A5/GpH7-B3 variant T335_13S/GpL16-k0 (antibody, human IgG1, kappa, also called He Ab T335_13S) heavy 1: not shown heavy 2: not shown light: DIVMTQSPLSLPVTPGEPASISCQASESLVHSNRNTYLHWYLQKPGQSPQLLIYKVSNRFSGVPDRFSGSGSGTDFTLKISRVEAEDVGVYYCSQNTHVPPTFGQGTKVEIERTVAAPSVFIFPPSDEQLKSGTASVVCLLNNFYPREAKVQWKVDNALQSGNSQESVTEQDSKDSTYSLSSTLTLSKADYEKHKVYACEVTHQGLSSPVTKSFNRGEC | 106 % of control |  | 
8 | GpH7-A5/GpH7-B3 variant T335_01G/GpL16-k0 (antibody, human IgG1, kappa, also called He Ab T335_01G) heavy 1: not shown heavy 2: not shown light: DIVMTQSPLSLPVTPGEPASISCQASESLVHSNRNTYLHWYLQKPGQSPQLLIYKVSNRFSGVPDRFSGSGSGTDFTLKISRVEAEDVGVYYCSQNTHVPPTFGQGTKVEIERTVAAPSVFIFPPSDEQLKSGTASVVCLLNNFYPREAKVQWKVDNALQSGNSQESVTEQDSKDSTYSLSSTLTLSKADYEKHKVYACEVTHQGLSSPVTKSFNRGEC | 103 % of control |  | 
9 | GpH7-A5/GpH7-B3 variant T335_16H/GpL16-k0 (antibody, human IgG1, kappa, also called He Ab T335_16H) heavy 1: not shown heavy 2: not shown light: DIVMTQSPLSLPVTPGEPASISCQASESLVHSNRNTYLHWYLQKPGQSPQLLIYKVSNRFSGVPDRFSGSGSGTDFTLKISRVEAEDVGVYYCSQNTHVPPTFGQGTKVEIERTVAAPSVFIFPPSDEQLKSGTASVVCLLNNFYPREAKVQWKVDNALQSGNSQESVTEQDSKDSTYSLSSTLTLSKADYEKHKVYACEVTHQGLSSPVTKSFNRGEC | 105 % of control |  | 
